Experiment [1] addresses T1, his-tagged human CDH6 extracellular region protein (hCDH6 ECD-his) (human, UniProt P55285 19-615).
T1 construct: also called Human CDH6-his; hCDH6-his; not shown: his tag
T1 sequence: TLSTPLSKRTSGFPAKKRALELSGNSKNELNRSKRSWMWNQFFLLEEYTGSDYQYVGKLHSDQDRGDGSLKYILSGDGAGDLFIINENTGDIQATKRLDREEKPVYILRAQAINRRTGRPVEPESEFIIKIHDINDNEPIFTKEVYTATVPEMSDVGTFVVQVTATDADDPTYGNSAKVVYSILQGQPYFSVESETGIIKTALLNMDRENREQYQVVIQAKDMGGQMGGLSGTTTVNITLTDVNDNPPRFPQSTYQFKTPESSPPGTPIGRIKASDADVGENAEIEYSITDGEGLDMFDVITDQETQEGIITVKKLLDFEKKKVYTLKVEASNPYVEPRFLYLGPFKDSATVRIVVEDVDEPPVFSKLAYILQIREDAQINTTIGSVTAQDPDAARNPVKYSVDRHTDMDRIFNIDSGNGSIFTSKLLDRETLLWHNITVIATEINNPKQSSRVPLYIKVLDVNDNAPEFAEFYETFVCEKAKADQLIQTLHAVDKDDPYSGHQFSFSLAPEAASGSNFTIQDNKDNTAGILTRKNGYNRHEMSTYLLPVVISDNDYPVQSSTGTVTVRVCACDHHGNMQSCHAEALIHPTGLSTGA
As to the kind of experiment: ELISA, coated antigen. Background: In an ELISA, binding on a coated surface is turned into a signal by an enzyme label.

The target of experiment [2] is T1, his-tagged human CDH6 extracellular …. As to the kind of experiment: SPR Biacore, antibody captured on Protein A. How it is done: The affinity of the antibody for the antigen was determined by a multi-cycle kinetic method using a BIAcore 8K instrument. In each cycle, the antibody to be tested was captured using a Protein A chip (purchased from GE, Cat. No. 29-1275-56), and then the antigen human CDH6 protein (hCDH6-his, conventionally synthesized) was injected. The association and dissociation processes of the antibody with the antigen protein were recorded, and finally, the chip was regenerated using Glycine pH 1.5, wherein the mobile phase was HBS-EP+ (10 mM HEPES, 150 mM NaCl, 3 mM EDTA, 0.05% surfactant P20, and 1 mM Ca), the flow rate was 30 μL/min, the association time was 240 s, the dissociation time was 300 s, the regeneration time was 30 s, the detection temperature was 25° C., and the antigen concentration was 31.25-1000 nM. The data were analyzed using Biacore 8K analysis software (version No. 2.0) based on the 1:1 binding model to fit the antibody-antigen binding kinetic parameters, including the association rate constant ka, the dissociation rate constant kd, and the equilibrium dissociation constant KD. The affinity values of the control antibody DS-H01L02 were undetectable. Antibodies not shown in the table had undetectable affinity values.
Four hCDH6-1 humanized antibodies with fewer back mutations were selected, and the affinity for human CDH6 protein was further confirmed using Biacore.
Background: In SPR one partner is held on a chip, and binding of the other changes the refractive index at the surface.

Experiment [3] addresses T2, human CDH6 on tumor cells (OVCAR3 cells, PA-1 cells) (human, UniProt P55285 54-790).
T2 sequence: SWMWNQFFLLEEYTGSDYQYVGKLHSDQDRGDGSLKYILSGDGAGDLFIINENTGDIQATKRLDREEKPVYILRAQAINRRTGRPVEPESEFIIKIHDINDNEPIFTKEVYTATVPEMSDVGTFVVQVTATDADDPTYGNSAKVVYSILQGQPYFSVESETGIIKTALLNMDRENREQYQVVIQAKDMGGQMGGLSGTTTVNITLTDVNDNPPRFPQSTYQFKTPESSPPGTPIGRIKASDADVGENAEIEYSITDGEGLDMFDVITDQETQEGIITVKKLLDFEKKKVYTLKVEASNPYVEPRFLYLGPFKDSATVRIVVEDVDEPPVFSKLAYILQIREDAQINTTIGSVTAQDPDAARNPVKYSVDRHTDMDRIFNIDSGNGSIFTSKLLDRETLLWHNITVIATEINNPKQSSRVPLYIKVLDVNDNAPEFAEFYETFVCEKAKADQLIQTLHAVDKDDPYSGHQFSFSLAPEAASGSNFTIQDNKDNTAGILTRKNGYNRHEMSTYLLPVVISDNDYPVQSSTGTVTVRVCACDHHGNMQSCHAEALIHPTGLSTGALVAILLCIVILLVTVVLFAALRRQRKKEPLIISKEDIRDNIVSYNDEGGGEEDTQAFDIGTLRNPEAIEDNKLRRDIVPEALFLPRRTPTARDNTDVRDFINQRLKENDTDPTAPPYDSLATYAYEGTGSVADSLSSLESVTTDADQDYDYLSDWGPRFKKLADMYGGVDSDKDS
In words: FACS, OVCAR3 cells. How it is done: OVCAR3 cells with high expression of CDH6 and PA-1 cells with moderate expression of CDH6 were used to detect the binding activity of the antibodies to the cells. […] The cells were washed once with PBS, counted, resuspended to 2×10⁶ cells/mL in an FACS buffer (PBS+2% FBS), and then added to a 96-well plate at 50 μL/well. The chimeric antibodies were diluted with FACS buffer (PBS+2% FBS) and added to the 96-well plate at 50 μL/well, and the plate was incubated at 4° C. for 1 h. […] The dilution was added to the 96-well plate at 50 μL/well, and the plate was incubated at 4° C. for 1 h. After the plates were centrifuged and washed 2 times with PBS, the cells were resuspended in an FACS buffer. The mean fluorescence intensity (MFI) was measured using FACS Canton II (BD). Analysis was performed by the GraphPad Prism software, data were fitted, and EC50 values were calculated. The chimeric antibodies tested had strong binding to both OVCAR3 cells and PA-1 cells.
According to the above sequences, heavy chain (HC) and light chain (LC) plasmids were constructed (the nucleic acid sequences encoding the VH and VL of the antibodies were recombined into an expression vector carrying a signal peptide (SEQ ID NO: 132, […]) and a heavy chain constant region/light chain constant region sequence to obtain recombinant plasmids expressing VH-CH1-Fc/VL-CL). According to the expression and purification methods in Example 2, the hCDH6-1 humanized antibodies were obtained, and the binding activity of the humanized antibodies was detected by ELISA and FACS (see 2.2 and 2.3 for the method).
On the technique in general: In flow cytometry, cells or beads pass a laser one at a time.

What is called EC50 is the midpoint of the concentration-response curve. Lower therefore signals an effect from little substance. One may read the Kd as the equilibrium constant for the complex coming apart. As usually defined, the koff is the first-order rate constant of dissociation. Usually kon stands for the rate constant with which the complex forms. Read a high kon as faster complex formation.

B1: hCDH6-1-H1L1 (antibody, V domains shown)
VH: EVQLVQSGAEVKKPGSSVKVSCKASGYTFSNYWMHWVRQAPGQGLEWMGDIDPSHSETHYTQKFKDRVTITVDKSTSTAYMELSSLRSEDTAVYYCARGDLGRFDYWGQGTTVTVSS
VL: DIVMTQSPDSLAVSLGERATINCRASESVSIHGTHLMHWYQQKPGQPPKLLIYAASNLESGVPDRFSGSGSETDFTLTISSLQAEDVAVYYCQQSFEDPWTFGGGTKVEIK
notes: Humanized
For the molecule B1, in experiment [1], a half-maximal response (EC50) required 0.025 nM and the “Max OD450” value turned out to be 2.8 OD450. Besides, in experiment [2], the Kd came out at 21.7 nM, the koff is 0.00456 s⁻¹ and the kon amounted to 210000 M⁻¹ s⁻¹. Further, in experiment [3], the midpoint of the response, the EC50, lay at 0.166 nM and the “Max MFI” value turned out to be 14400 MFI.

B2: hCDH6-1-H3L2 (antibody, V domains shown)
VH: EVQLVQSGAEVKKPGSSVKVSCKASGYTFTNYWMHWVRQAPGQGLEWMGDIDPSHSETHYTQKFKDRVTLTVDKSTSTAYMELSSLRSEDTAVYYCARGDLGRFDYWGQGTTVTVSS
VL: DIVMTQSPDSLAVSLGERATINCRASESVSIHGTHLMHWYQQKSGQPPKLLIYAASNLESGVPDRFSGSGSETDFTLTISSLQAEDVAVYYCQQSFEDPWTFGGGTKVEIK
notes: Humanized
Consider B2, for which, in experiment [1], the EC50 came out at 0.026 nM and the “Max OD450” value was 2.58 OD450. Also, in experiment [3], the midpoint of the response, the EC50, lay at 0.167 nM and the “Max MFI” value was 14300 MFI.

B3: hCDH6-1-H4L3 (antibody, V domains shown)
VH: EVQLVQSGAEVKKPGSSVKVSCKASGYTFTNYWMHWVRQRPGQGLEWMGDIDPSHSETHYTQKFKDRVTITVDKSTSTAYMELSSLRSEDTAVYYCARGDLGRFDYWGQGTTVTVSS
VL: DIQMTQSPSSLSASVGDRVTITCRASESVSIHGTHLMHWYQQKPGKPPKLLIYAASNLESGVPSRFSGSGSETDFTFTISSLQPEDIATYYCQQSFEDPWTFGGGTKVEIK
notes: Humanized
As to B3, in experiment [1], the response was half-maximal at 0.029 nM (EC50) and the “Max OD450” value came out at 2.61 OD450. Also, in experiment [3], the EC50 stood at 0.162 nM and the “Max MFI” value was found to be 15100 MFI.

B4: hCDH6-1-H2L2 (antibody, V domains shown)
VH: EVQLVQSGAEVKKPGSSVKVSCKASGYTFTNYWMHWVRQAPGQGLEWMGDIDPSHSETHYTQKFKDRVTITVDKSTSTAYMELSSLRSEDTAVYYCARGDLGRFDYWGQGTTVTVSS
VL: DIVMTQSPDSLAVSLGERATINCRASESVSIHGTHLMHWYQQKSGQPPKLLIYAASNLESGVPDRFSGSGSETDFTLTISSLQAEDVAVYYCQQSFEDPWTFGGGTKVEIK
notes: Humanized
B4: in experiment [1], the response was half-maximal at 0.026 nM (EC50) and the “Max OD450” value amounted to 2.63 OD450. In experiment [3], the midpoint of the response, the EC50, lay at 0.147 nM and the “Max MFI” value was 14300 MFI.

B5: hCDH6-1-H3L3 (antibody, V domains shown)
VH: EVQLVQSGAEVKKPGSSVKVSCKASGYTFTNYWMHWVRQAPGQGLEWMGDIDPSHSETHYTQKFKDRVTLTVDKSTSTAYMELSSLRSEDTAVYYCARGDLGRFDYWGQGTTVTVSS
VL: DIQMTQSPSSLSASVGDRVTITCRASESVSIHGTHLMHWYQQKPGKPPKLLIYAASNLESGVPSRFSGSGSETDFTFTISSLQPEDIATYYCQQSFEDPWTFGGGTKVEIK
notes: Humanized
With B5, in experiment [1], the response was half-maximal at 0.03 nM (EC50) and the “Max OD450” value was 2.71 OD450. In experiment [3], the EC50 worked out at 0.155 nM and the “Max MFI” value stood at 14600 MFI.

B6: hCDH6-1-H3L1 (antibody, V domains shown)
VH: EVQLVQSGAEVKKPGSSVKVSCKASGYTFTNYWMHWVRQAPGQGLEWMGDIDPSHSETHYTQKFKDRVTLTVDKSTSTAYMELSSLRSEDTAVYYCARGDLGRFDYWGQGTTVTVSS
VL: DIVMTQSPDSLAVSLGERATINCRASESVSIHGTHLMHWYQQKPGQPPKLLIYAASNLESGVPDRFSGSGSETDFTLTISSLQAEDVAVYYCQQSFEDPWTFGGGTKVEIK
notes: Humanized
On to B6, for which, in experiment [1], a half-maximal response (EC50) required 0.026 nM and the “Max OD450” value was 2.6 OD450. Further, in experiment [3], the EC50 stood at 0.154 nM and the “Max MFI” value worked out at 14600 MFI.

B7: hCDH6-1-H4L2 (antibody, V domains shown)
VH: EVQLVQSGAEVKKPGSSVKVSCKASGYTFTNYWMHWVRQRPGQGLEWMGDIDPSHSETHYTQKFKDRVTITVDKSTSTAYMELSSLRSEDTAVYYCARGDLGRFDYWGQGTTVTVSS
VL: DIVMTQSPDSLAVSLGERATINCRASESVSIHGTHLMHWYQQKSGQPPKLLIYAASNLESGVPDRFSGSGSETDFTLTISSLQAEDVAVYYCQQSFEDPWTFGGGTKVEIK
notes: Humanized
Turning to B7, in experiment [1], the EC50 amounted to 0.026 nM and the “Max OD450” value is 2.55 OD450. Moreover, in experiment [3], a half-maximal response (EC50) required 0.176 nM and the “Max MFI” value came out at 15200 MFI.

B8: hCDH6-1-H4L1 (antibody, V domains shown)
VH: EVQLVQSGAEVKKPGSSVKVSCKASGYTFTNYWMHWVRQRPGQGLEWMGDIDPSHSETHYTQKFKDRVTITVDKSTSTAYMELSSLRSEDTAVYYCARGDLGRFDYWGQGTTVTVSS
VL: DIVMTQSPDSLAVSLGERATINCRASESVSIHGTHLMHWYQQKPGQPPKLLIYAASNLESGVPDRFSGSGSETDFTLTISSLQAEDVAVYYCQQSFEDPWTFGGGTKVEIK
notes: Humanized
In the case of B8, in experiment [1], the EC50 is 0.031 nM and the “Max OD450” value worked out at 2.62 OD450. In experiment [3], the EC50 turned out to be 0.152 nM and the “Max MFI” value is 14000 MFI.

B9: hCDH6-1-H1L2 (antibody, V domains shown)
VH: EVQLVQSGAEVKKPGSSVKVSCKASGYTFSNYWMHWVRQAPGQGLEWMGDIDPSHSETHYTQKFKDRVTITVDKSTSTAYMELSSLRSEDTAVYYCARGDLGRFDYWGQGTTVTVSS
VL: DIVMTQSPDSLAVSLGERATINCRASESVSIHGTHLMHWYQQKSGQPPKLLIYAASNLESGVPDRFSGSGSETDFTLTISSLQAEDVAVYYCQQSFEDPWTFGGGTKVEIK
notes: Humanized
Regarding B9, in experiment [1], the EC50 was 0.027 nM and the “Max OD450” value is 2.75 OD450. In addition, in experiment [2], the Kd was 21.5 nM, the koff turned out to be 0.00422 s⁻¹ and the kon is 196000 M⁻¹ s⁻¹. Moreover, in experiment [3], the midpoint of the response, the EC50, lay at 0.177 nM and the “Max MFI” value came out at 14500 MFI.

The values are drawn from patent publication US20260234242A1 (HAINAN SIMCERE ZAIMING PHARMACEUTICAL, published 2026).
